Measurements from article PMC9132681 (Biochimie, 2022).

B1: C-terminal domain of human Hsp90 (residues 566-732) (domain or fragment)
chain: not shown
B2: cytosolic fragment of human TOM70 (residues 111-608), His-tagged (domain or fragment)
chain: LDRAQAAKNKGNKYFKAGKYEQAIQCYTEAISLCPTEKNVDLSTFYQNRAAAFEQLQKWKEVAQDCTKAVELNPKYVKALFRRAKAHEKLDNKKECLEDVTAVCILEGFQNQQSMLLADKVLKLLGKEKAKEKYKNREPLMPSPQFIKSYFSSFTDDIISQPMLKGEKSDEDKDKEGEALEVKENSGYLKAKQYMEEENYDKIISECSKEIDAEGKYMAEALLLRATFYLLIGNANAAKPDLDKVISLKEANVKLRANALIKRGSMYMQQQQPLLSTQDFNMAADIDPQNADVYHHRGQLKILLDQVEEAVADFDECIRLRPESALAQAQKCFALYRQAYTGNNSSQIQAAMKGFEEVIKKFPRCAEGYALYAQALTDQQQFGKADEMYDKCIDLEPDNATTYVHKGLLQLQWKQDLDRGLELISKAIEIDNKCDFAYETMGTIEVQRGNMEKAIDMFNKAINLAKSEMEMAHLYSLCDAAHAQTEVAKKYGLKPPTL

How the values were obtained:
[1] = target: B2; test: SEC-MALS
full-length human Hsp90 = full-length human Hsp90 (human, UniProt P07900 1-732); test: pull-down

Binder: B1
- stoichiometry N [1]: 2 C-Hsp90 per TOM70

Binder: B2
- binding result (full-length human Hsp90): binds
